Source: the supplement of paper PMC7125110
± gives the standard error. This sample holds only a part of the variants without activity.

B1: glmS ribozyme (parent)
chain: AUAAAAGCGCCAGAACUACAGAAAUGUAGUUGACGAGGAGGAGGUUUAUCGAAUUUUCGGCGGAUGCCUCCAAA

Assays:
Details in all cases: with glucosamine-6-phosphate
[1] = variants of: B1; assay: self-cleavage kobs at 40 uM GlcN6P; higher = faster cleavage; RNA array
In short: (§1)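 Glucosamine-6-phosphate, from 40 μM to 10 mM in HEPES/KCl/Mg(OAc)2 buffer, was flowed over sequenced MiSeq chips carrying barcoded ribozyme variants transcribed in situ by E. coli RNA polymerase. A hybridised Cy3 probe tracked the variants at 37 °C as tiles were imaged over ~14 h. kobs, kcat and KM were obtained by fitting normalised per-tile medians to exponential decays and then applying weighted Michaelis–Menten fits across concentrations.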

[2] = variants of: B1; assay: self-cleavage kobs at 10000 uM GlcN6P; higher = faster cleavage; RNA array
In short: as §1

[3] = variants of: B1; assay: self-cleavage kobs at 160 uM GlcN6P; higher = faster cleavage; RNA array
In short: as §1

[4] = variants of: B1; assay: self-cleavage kobs at 640 uM GlcN6P; higher = faster cleavage; RNA array
In short: as §1

[5] = variants of: B1; assay: self-cleavage kobs at 2500 uM GlcN6P; higher = faster cleavage; RNA array
In short: as §1

Variant	self-cleavage kobs at 40 uM GlcN6P [1] [s⁻¹]	self-cleavage kobs at 10000 uM GlcN6P [2] [s⁻¹]	self-cleavage kobs at 160 uM GlcN6P [3] [s⁻¹]	self-cleavage kobs at 640 uM GlcN6P [4] [s⁻¹]	self-cleavage kobs at 2500 uM GlcN6P [5] [s⁻¹]
G37C A48U	< 1e-05	< 1e-05			
G44A U47C	< 1e-05	< 1e-05	< 1e-05	< 1e-05	< 1e-05
U31C G60A	< 1e-05	< 1e-05		< 1e-05	
C8A A39G A52U			< 1e-05	< 1e-05	< 1e-05
G29U U30A U31G A53U	< 1e-05			7.01e-05 ± 2.6e-05	
C10A U46G U47G C50G C58G C68U	0.000116 ± 2.2e-05	0.000242 ± 4.3e-05			
A14U C50G C58G	0.000124 ± 3.9e-05	0.000108 ± 2.7e-05			
C8G G40U	< 1e-05	< 1e-05		< 1e-05	< 1e-05
G32U G62A	< 1e-05	< 1e-05		< 1e-05	< 1e-05
C16G A36G	< 1e-05	< 1e-05	< 1e-05	< 1e-05	
C34U G51U	< 1e-05		< 1e-05	< 1e-05	
G7U U45G C71A	< 1e-05	< 1e-05			< 1e-05
G60U G63A C67U	< 1e-05				
C8A U31C G40A A42C U65A G66A	< 1e-05				
C10U A15C G43U C50U U57G G59A	< 1e-05	< 1e-05	< 1e-05	< 1e-05	< 1e-05
G9U A15C U47C	< 1e-05				
G29C U46G U47A C70G			5.51e-05 ± 2.1e-05	0.00011 ± 3.9e-05	6.12e-05 ± 2.5e-05
G32U A48U G60A			< 1e-05		
U30A A48G	< 1e-05		< 1e-05	< 1e-05	
A39C A42C U46C			< 1e-05		
C10G A14G C16A G41C	< 1e-05	< 1e-05			
C8A U46A	< 1e-05	< 1e-05	< 1e-05	< 1e-05	< 1e-05
A6G G38A C50G C71A	9.73e-05 ± 2.8e-05				
U45G A52C U55C C71U	< 1e-05				

Variant	self-cleavage kobs at 40 uM GlcN6P [1] [s⁻¹]	self-cleavage kobs at 10000 uM GlcN6P [2] [s⁻¹]	self-cleavage kobs at 160 uM GlcN6P [3] [s⁻¹]	self-cleavage kobs at 640 uM GlcN6P [4] [s⁻¹]	self-cleavage kobs at 2500 uM GlcN6P [5] [s⁻¹]
G13A G41C	< 1e-05			< 1e-05	
G32A U56G		0.000906 ± 8.9e-05	9.78e-05 ± 3.6e-05	0.000151 ± 2e-05	0.000254 ± 3.2e-05
A48U A64C C67U	< 1e-05	< 1e-05		< 1e-05	
A48C C67U C71A	< 1e-05	< 1e-05			
C16U U54C	0.000813 ± 0.00013	0.0254 ± 0.0047	0.00146 ± 0.00024	0.00641 ± 0.001	0.00606 ± 0.0012
U45A U55A A64G	0.00112 ± 0.00022	0.0175 ± 0.0056		0.00335 ± 0.0011	0.00972 ± 0.0028
U31G U55G	0.000486 ± 0.0001	0.0152 ± 0.0067	0.000859 ± 0.00014	0.00296 ± 0.00071	0.0116 ± 0.0027
G21U G43U G51U	< 1e-05	< 1e-05		< 1e-05	
C10G G37A G66U U69G C71A	< 1e-05		< 1e-05		
A52C G62U C71A	< 1e-05				< 1e-05
G7A A33C U57C G63A	< 1e-05				
C8G C50G C67A	0.000144 ± 2.5e-05	0.000113 ± 1.8e-05			
G41A G60A G62U C70A	< 1e-05				
G9C C71U	< 1e-05	< 1e-05	< 1e-05	< 1e-05	< 1e-05
G9A C11U C16U G63A U65G C68G			4.96e-05 ± 1.6e-05	7.82e-05 ± 1.8e-05	3.97e-05 ± 1.5e-05
C34A G38A	< 1e-05	< 1e-05	< 1e-05		< 1e-05
G29C A36U	< 1e-05			< 1e-05	
G59A G63C	< 1e-05		< 1e-05	< 1e-05	< 1e-05
G9A C16G A52U	< 1e-05	< 1e-05			
A15G G32C G41A G60A C71U	< 1e-05				
A42G G63A	< 1e-05	< 1e-05	< 1e-05	< 1e-05	< 1e-05
A42G G43C	< 1e-05	< 1e-05		< 1e-05	
C8A U49A	< 1e-05			< 1e-05	
